Test results taken from patent publication US20050244862A1.

Columns and labels:
Experiment in all cases: cell-based or functional assay
[1] = molecular target: ETB endothelin receptor
[2] = molecular target: T1, ETA endothelin receptor
T1 sequence (P25101 whole entry, species assumed, looked up): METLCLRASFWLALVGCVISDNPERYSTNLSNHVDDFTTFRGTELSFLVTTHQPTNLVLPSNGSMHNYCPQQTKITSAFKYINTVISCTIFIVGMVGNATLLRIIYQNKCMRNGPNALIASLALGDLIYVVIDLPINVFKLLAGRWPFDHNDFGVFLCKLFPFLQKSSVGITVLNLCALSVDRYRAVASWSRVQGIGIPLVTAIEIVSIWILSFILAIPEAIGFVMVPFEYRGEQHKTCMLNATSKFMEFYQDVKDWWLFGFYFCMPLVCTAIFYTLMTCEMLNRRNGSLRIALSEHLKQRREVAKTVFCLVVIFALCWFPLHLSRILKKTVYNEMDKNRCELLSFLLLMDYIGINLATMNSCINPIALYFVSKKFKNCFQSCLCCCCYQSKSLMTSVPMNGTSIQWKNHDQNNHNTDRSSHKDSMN

[3] = molecular target: NK2 tachykinin receptor (UniProt P21452)
[4] = molecular target: NK1 tachykinin receptor (UniProt P25103)
[5] = molecular target: T2, NK3 tachykinin receptor (UniProt P29371)
T2 sequence (looked up): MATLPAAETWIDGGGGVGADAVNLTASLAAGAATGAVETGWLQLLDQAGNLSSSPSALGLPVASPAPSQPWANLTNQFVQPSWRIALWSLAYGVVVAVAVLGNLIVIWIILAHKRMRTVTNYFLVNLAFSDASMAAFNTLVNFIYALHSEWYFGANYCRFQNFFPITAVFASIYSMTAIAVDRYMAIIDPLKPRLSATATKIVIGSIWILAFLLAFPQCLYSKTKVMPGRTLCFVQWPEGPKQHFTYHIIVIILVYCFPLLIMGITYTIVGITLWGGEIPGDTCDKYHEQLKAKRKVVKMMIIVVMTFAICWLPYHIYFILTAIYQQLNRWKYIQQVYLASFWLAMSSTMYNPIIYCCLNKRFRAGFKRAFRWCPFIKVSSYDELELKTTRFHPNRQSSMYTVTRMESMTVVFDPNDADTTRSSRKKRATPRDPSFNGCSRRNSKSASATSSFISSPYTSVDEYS

[6] = molecular target: human trk A receptor (human) (UniProt P04629)
[7] = molecular target: trk C receptor subtype

NK1 tachykinin receptor, sequence (P25103 whole entry): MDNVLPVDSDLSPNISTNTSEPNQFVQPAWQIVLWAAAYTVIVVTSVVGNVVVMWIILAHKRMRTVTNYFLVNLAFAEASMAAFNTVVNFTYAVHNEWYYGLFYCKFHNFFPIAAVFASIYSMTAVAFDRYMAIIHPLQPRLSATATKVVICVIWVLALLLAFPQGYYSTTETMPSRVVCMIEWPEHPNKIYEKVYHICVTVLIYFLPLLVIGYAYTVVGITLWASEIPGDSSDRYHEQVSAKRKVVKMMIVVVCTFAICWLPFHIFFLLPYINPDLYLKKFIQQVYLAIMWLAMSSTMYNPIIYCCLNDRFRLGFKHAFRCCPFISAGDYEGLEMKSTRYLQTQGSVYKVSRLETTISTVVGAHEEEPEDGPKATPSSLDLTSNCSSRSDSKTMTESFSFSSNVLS
NK2 tachykinin receptor, sequence (P21452 whole entry): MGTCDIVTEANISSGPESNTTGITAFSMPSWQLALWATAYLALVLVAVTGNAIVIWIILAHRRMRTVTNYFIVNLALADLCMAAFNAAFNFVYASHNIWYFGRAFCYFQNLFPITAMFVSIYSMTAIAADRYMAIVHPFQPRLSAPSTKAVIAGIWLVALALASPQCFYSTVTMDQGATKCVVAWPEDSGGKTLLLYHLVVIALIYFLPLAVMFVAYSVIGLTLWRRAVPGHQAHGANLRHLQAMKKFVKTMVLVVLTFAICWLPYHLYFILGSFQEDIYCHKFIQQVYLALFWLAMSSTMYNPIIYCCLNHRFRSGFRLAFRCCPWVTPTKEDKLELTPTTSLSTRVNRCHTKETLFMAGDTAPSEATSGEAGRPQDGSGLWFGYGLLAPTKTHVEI
ETB endothelin receptor, sequence (P24530 whole entry): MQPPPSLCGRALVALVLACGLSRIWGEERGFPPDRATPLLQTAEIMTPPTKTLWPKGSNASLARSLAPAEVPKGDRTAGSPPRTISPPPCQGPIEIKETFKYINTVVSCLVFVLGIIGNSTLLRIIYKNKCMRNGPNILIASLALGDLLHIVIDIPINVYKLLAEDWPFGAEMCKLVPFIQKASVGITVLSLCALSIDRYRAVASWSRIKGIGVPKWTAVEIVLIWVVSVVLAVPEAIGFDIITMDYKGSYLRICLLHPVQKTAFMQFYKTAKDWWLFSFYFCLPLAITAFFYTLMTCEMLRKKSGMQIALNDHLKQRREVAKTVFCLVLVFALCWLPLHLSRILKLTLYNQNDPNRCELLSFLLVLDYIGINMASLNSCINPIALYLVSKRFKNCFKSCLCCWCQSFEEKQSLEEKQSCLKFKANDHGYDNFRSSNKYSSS
human trk A receptor (human), sequence (P04629 33-796): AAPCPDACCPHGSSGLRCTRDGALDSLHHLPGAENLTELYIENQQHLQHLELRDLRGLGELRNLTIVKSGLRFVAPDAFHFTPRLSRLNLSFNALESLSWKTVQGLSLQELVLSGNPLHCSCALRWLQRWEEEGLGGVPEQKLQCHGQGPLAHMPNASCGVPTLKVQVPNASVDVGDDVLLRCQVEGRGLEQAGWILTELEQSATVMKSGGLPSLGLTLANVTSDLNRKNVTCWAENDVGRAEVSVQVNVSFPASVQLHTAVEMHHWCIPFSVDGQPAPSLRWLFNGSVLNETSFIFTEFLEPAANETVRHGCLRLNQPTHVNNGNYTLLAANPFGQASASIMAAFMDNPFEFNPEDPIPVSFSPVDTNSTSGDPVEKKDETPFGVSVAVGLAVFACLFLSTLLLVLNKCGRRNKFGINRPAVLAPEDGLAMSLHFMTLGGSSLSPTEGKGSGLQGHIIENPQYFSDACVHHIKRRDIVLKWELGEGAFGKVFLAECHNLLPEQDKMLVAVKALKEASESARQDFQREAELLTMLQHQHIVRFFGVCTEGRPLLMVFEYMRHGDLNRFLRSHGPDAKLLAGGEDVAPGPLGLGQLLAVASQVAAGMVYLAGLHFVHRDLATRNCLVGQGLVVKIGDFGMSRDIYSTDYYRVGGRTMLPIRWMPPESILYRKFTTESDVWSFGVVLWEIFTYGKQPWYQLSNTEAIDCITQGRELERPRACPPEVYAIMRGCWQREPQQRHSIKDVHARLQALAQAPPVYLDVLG

B1: ET-3 (peptide, UniProt P14138 97-117, looked up)
peptide: CTCFTYKDKECVYYCHLDIIW
EC50, amplification assay (β-galactosidase), Single Receptor Format [1]: 0.14 nM
EC50, amplification assay (β-galactosidase), Single Receptor Format [2]: 2.1 nM

B2: ET-2 (peptide, UniProt P20800 49-69, looked up)
peptide: CSCSSWLDKECVYFCHLDIIW
EC50, amplification assay (β-galactosidase), Single Receptor Format [2]: 16 nM

B3: neurokinin B (peptide, UniProt Q9UHF0 81-90, looked up)
peptide: DMHDFFVGLM
EC50, amplification assay (β-galactosidase), Single Receptor Format [3]: 1.3 nM
EC50, amplification assay (β-galactosidase), Single Receptor Format [4]: 99 nM
EC50, amplification assay (β-galactosidase), Single Receptor Format [5]: 100 nM

B4: neutrotrophic factor NT3 (ligand, UniProt P20783 139-257, looked up)
chain: YAEHKSHRGEYSVCDSESLWVTDKSSAIDIRGHQVTVLGEIKTGNSPVKQYFYETRCKEARPVKNGCRGIDDKHWNSQCKTSQTYVRALTSENNKLVGWRWIRIDTSCVCALSRKIGRT
EC50, amplification assay (β-galactosidase), Single Receptor Format [6]: > 1000 ng/mL
EC50, amplification assay (β-galactosidase), Single Receptor Format [7]: 2.4 ng/mL
